In experiment [1] the target is YFP‐labeled Bcl‐xl (UniProt Q07817). Put plainly: FRET or BRET; live-cell FRET two-hybrid assay (E-FRET and 3^3-FRET) in HeLa cells coexpressing CFP-Mff and YFP-Bcl-xl, 50 µM Z-VAD-FMK; cytoplasm of cells with filamentous Mff and Bcl-xl distribution (ROI 1). A general note: BRET reads energy transfer from a luciferase to a nearby fluorophore.
The target is the same in experiment [2]. The experiment can be described thus: FRET or BRET; live-cell FRET two-hybrid assay (E-FRET and 3^3-FRET) in HeLa cells coexpressing CFP-Mff and YFP-Bcl-xl, 50 µM Z-VAD-FMK; tubular mitochondrial region of cells with filamentous distribution (ROI 2).
For experiment [3] the target is unchanged. The experiment can be described thus: FRET or BRET; live-cell FRET two-hybrid assay (E-FRET and 3^3-FRET) in HeLa cells coexpressing CFP-Mff and YFP-Bcl-xl, 50 µM Z-VAD-FMK; fragmented mitochondrial region of cells with punctate distribution (ROI 4).
For experiment [4] the target is unchanged. The experiment can be described thus: FRET or BRET; live-cell FRET two-hybrid assay (E-FRET and 3^3-FRET) in HeLa cells coexpressing CFP-Mff and YFP-Bcl-xl, 50 µM Z-VAD-FMK; cytoplasm of cells with punctate Mff and Bcl-xl distribution (ROI 3).

Chain of UniProt Q07817 (Q07817 whole entry): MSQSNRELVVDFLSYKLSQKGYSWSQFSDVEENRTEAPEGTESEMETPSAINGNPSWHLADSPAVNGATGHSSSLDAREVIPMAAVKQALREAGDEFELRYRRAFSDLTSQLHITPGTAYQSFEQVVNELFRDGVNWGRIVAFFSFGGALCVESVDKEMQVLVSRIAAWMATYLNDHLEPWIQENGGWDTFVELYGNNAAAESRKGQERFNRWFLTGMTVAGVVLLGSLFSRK

For orientation: stoichiometry N means the number of molecules, sites or subunits per partner or assembly. In the case of “CFP‐labeled Mff (mitochondrial fission factor) (from UniProt Q9GZY8 1-342) (natural protein)”, the EA (acceptor-centric FRET efficiency) with YFP‐labeled Bcl‐xl [1] came out at 0.151; with YFP‐labeled Bcl‐xl [2], 0.071; with YFP‐labeled Bcl‐xl [3], 0.115; with YFP‐labeled Bcl‐xl [4] it was 0.072. The ED (donor-centric FRET efficiency) is 0.086 with YFP‐labeled Bcl‐xl [1], 0.067 with YFP‐labeled Bcl‐xl [2], 0.109 with YFP‐labeled Bcl‐xl [3] and 0.041 with YFP‐labeled Bcl‐xl [4]. The stoichiometry N with YFP‐labeled Bcl‐xl [1] is 0.586 Bcl‐xl/Mff; with YFP‐labeled Bcl‐xl [2] it was 0.97 Bcl‐xl/Mff; with YFP‐labeled Bcl‐xl [3], 0.924 Bcl‐xl/Mff; with YFP‐labeled Bcl‐xl [4] it was 0.643 Bcl‐xl/Mff.

The values are drawn from paper PMC6886297.
